Measured values published in the supplement of paper PMC10567573.

B1: SCNN1D (parent)
chain: IRVMVHGRNHTPFLGHHSFSVRPG

Variants of: B1
Assay: protein stability index of a GFP-peptide fusion (GPS, HEK-293T) (PSI 1-6); higher = more stable
Settings: c terminus: a fixed tail appended
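Also: lentivirally expressed fusions sorted by FACS into six bins by GFP to DsRed ratio, PSI derived from sequencing read proportions per bin multiplied by bin number.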

Protein stability index, by site and new letter:
S18: R 4.09 | W 4.89 | P 2.79 | I 5.22 | D 2.01
T11: F 2.59 | Y 3.8 | Q 2.44
V3: K 3.58 | S 2.13 | A 2.42 | H 2.07 | D 2.17 | R 2.13 | L 2.11 | Y 2.43 | Q 1.91 | F 1.93 | T 2.2 | N 1.85 | W 1.6 | G 2.33 | P 2.75
S20: T 2.59 | K 2.98 | I 2.92 | N 1.84
G24: N 1.56 | D 2.04 | H 1.84 | R 1.19 | I 2.44 | K 1.16
R2: N 2.13 | A 2.26 | L 2.6 | T 1.51 | G 2.91 | Q 1.58 | P 1.76 | D 2.76
H17: P 2.38 | E 1.51 | K 2.99 | Y 4.62 | L 3.67 | G 3.13 | V 2.27 | R 2.73 | T 1.89
H6: C 2.51 | A 2.13 | D 2.53 | T 2.35 | Y 2.35 | Q 3.67 | K 3.76 | F 1.91 | E 2.27 | P 2.34
V5: N 1.66 | S 1.21 | D 1.1 | P 2.12 | A 2.48 | T 1.89 | H 2.32 | M 3.81 | G 2.89 | E 2.64 | Q 1.87
I1: T 2.62 | L 1.31 | M 1.89 | F 1.82 | K 2.21 | A 2.28 | D 2.63 | H 2.74 | S 3.19 | N 2.85 | Q 3 | W 2.71 | R 3.65 | E 2.04 | P 2.61
H10: L 3.2 | M 2.15 | E 1.94 | V 3.51 | C 2.19
F19: K 1.77 | D 1.53 | M 1.87 | I 2.41 | H 1.91 | G 1.52 | Q 1.77 | T 2.35 | R 1.09 | P 1.01 | N 1.09
H16: Q 3.16 | L 3.83 | S 2.26
R22: G 1.39 | P 1.68 | W 3.39 | M 3.3 | S 2.31 | F 2.77 | D 2.85
F13: R 1 | A 4.08 | H 1.36 | N 1.77 | L 1.19 | G 1.96 | Y 2.77
R8: H 3.06 | A 2.25 | E 2.47
G7: R 2.12 | I 2.67 | C 1.7 | K 2.48 | S 1.72 | M 2.97 | T 1.92 | E 2.05
V21: S 1.87 | D 1.42 | H 3.02 | F 2.91 | R 2.78 | L 2.48 | N 1.49 | E 1.41 | A 1.8
M4: N 2.92 | K 1.72 | D 1.88 | G 1.5 | P 3.2 | W 2.32 | A 1.92
P12: H 1.48 | G 4.32 | I 3.72 | R 3.86 | Y 1.97
G15: V 4.3 | E 4.06 | T 1.88 | Q 1.54
N9: C 1.89 | V 3.7 | M 5.71 | G 2.67 | E 3.01 | Y 4.19
L14: H 2.23 | N 2.43 | E 1.8 | W 2.98 | I 2.76 | Y 2.42
